Test results reported in the DeepSol protein solubility set.

Assay: soluble on expression in E. coli; label from the status in PepcDB or PDB records
In the case of “GPAIAENLYFQSPNPRPGKPSAPSLALGPSPGASPSWRAAPKASDLLGARGPGGTFQGRDLRGGAHASSSSLNPMPPSQLQLPTLPLVMVAPSGARLGPLPHLQALLQDRPHFMHQLSTVDAHARTPVLQVHPLESPAMISLTPPTTATGVFSLKARPGLPPGINVASLEWVSREPALLCTFPNPSAPRKDSTLSAVPQSSYPLLANGVCKWPGCEKVFEEPEDFLKHCQADHLLDEKGRAQCLLQREMVQSLEQQLVLEKEKLSAMQAHLAGKMALTKASSVASSDKGSCCIVAAGSQGPVVPAWSGPREAPDSLFAVRRHLWGSHGNSTFPEFLHNMDYFKFHNMRPPFTYATLIRWAILEAPEKQRTLNEIYHWFTRMFAFFRNHPATWKNAIRHNLSLHKCFVRVESEKGAVWTVDELEFRKKRSQRPSRCSNPTPGP”, the “soluble on expression in E. coli” value is reported as “soluble”.
In the case of “MDLLFGRRKTPEELLRQNQRALNRAMRELDRERQKLETQEKKIIADIKKMAKQGQMDAVRIMAKDLVRTRRYVRKFVLMRANIQAVSLKIQTLKSNNSMAQAMKGVTKAMGTMNRQLKLPQIQKIMMEFERQAEIMDMKEEMMNDAIDDAMGDEEDEEESDAVVSQVLDELGLSLTDELSNLPSTGGSLSVAAGGKKAEAAASALADADADLEERLKNLRRD”, the “soluble on expression in E. coli” value is reported as “soluble”.
For “SLVKGESGHQAVSGIAIQRDLAIIEVDKEHLSSATKQCQMLGIDIWNVIEETERTGIMIKQEACAKFDLVFSDKIRNSEAVSLLTAVGLEANGMVEHACGLLAQQDIAINFCATNALTMMLVLPPESVDTAANILHDAYITSSEALNIQQKHAFLG”, the “soluble on expression in E. coli” value was “not soluble”.
For “VYWLNWTDRTRKFTIYNDIIERSLLTLKMMSFYNGAVLASLTTSLPEAVGEVRNWDYRFCWLRDASMSIETLFKIGHADATRKFMKFIQSTFVAEHDTYQIMYGIRGERKLTEVILDHLSGYKNSQPVRIGNDAYHQRQNDSFGYLMDLIYQYYRLMPGTLDEIEDMWEMVKSIMTTVMEDWRKPDKGIWEIRGEGQHFVSSKVMCWVALDRGARIARILNKYENSRRWEEEADAIKADVMRNGWKEEIQSFSQAYGNLDLDSSLLLMEPYGFIDADDIRYHKTVKAVKQSLLHKGLMYRYNTHDDFGCPSSAFTICTFWLIRALYVIGEKDEARCLFDEILQYSNHLGLFSEDIDFETKEQLGNFPQAYSHLALVNTAVLFAE”, the “soluble on expression in E. coli” value was “not soluble”.
For “MSQLDLLNIVHRPRRLRRTAALRNLVQENTLTVNDLVFPLFVMPGTNAVEEVSSMPGSFRFTIDRAVEECKELYDLGIQGIDLFGIPEQKTEDGSEAYNDNGILQQAIRAIKKAVPELCIMTDVALDPFTPFGHDGLVKDGIILNDETVEVLQKMAVSHAEAGADFVSPSDMMDGRIGAIREALDETDHSDVGILSYAAKYASSFYGPFRDALHSAPQFGDKSTYQMNPANTEEAMKEVELDIVEGADIVMVKPGLAYLDIVWRTKERFDVPVAIYHVSGEYAMVKAAAAKGWIDEDRVMMESLLCMKRAGADIIFTYYAKEAAKKLR”, the “soluble on expression in E. coli” value was “soluble”.
With “MYSAPDFSNNDYKIIMSSQNMKDEKEELMDINKVSEQEMLARKVSKSYVSKIIEYREITGGFDKLEDMKRIKGIGNATYQKLSKVFKVASAPNKKMLNINSADDMTLKYYGLSKKEIKRIQKYLDKNDRITDNIEFKKIVNKKTYERLKDLINYDGGKRLEHHHHHH” the “soluble on expression in E. coli” value was “soluble”.
In the case of “MSLKYDYVIIGNSAGGIGCVEAIRELDVDSSILVISAEKYHAYSRALIPYYLDGKIEFEKMYYRPPDFYEKMDVETKLGVRAVGVDVEAKKVLLESGEEVEYGKLLIATGGKPFIPPMEGLGGQSNVFTFLKMDDVLAVEKAIKEAKKAVVLGGGIIGLMASEVLAKKGLDVKVVELADRVLAPVVDETTSRIVERKFEENGVEIILNNTISKVVGEERVEKVILRDGRELEADMLLVAVGVVPNVDIVKNTPIKVNRGIVVNRKMETSVKDVYACGDCAEIYDFVFGANRVLPLWPTAYTGGRIAGFNMVGIEREYNLATSMNAMHFFDYYIINAGLNVPNDSEEFEVIYRLEGDSYRKFALKDGRIAGFIIAGKMERAGIFLKLMEEGIDVSSFKEKLLKDNFGFLDIPEPTRWKLIEDKIKLGVVREIEGHHHHHH”, the “soluble on expression in E. coli” value is reported as “soluble”.
With “MYIKNSERLKFRLMDSKDAQELWEIDQDPTVMKFLNGGNPTSIEQVNSVFIPRMNKYRNSELGWGIWQVSNKVTDEYLGWVLIRPMSFFTESPNTKDLELGWRFFQSTWGKGYATEAAIAIRDAVVANTDVTHVSALAVADNLASVGVMKKMGMHFVRAYLHEDPIGDFDAVHYQMSVRNK” the “soluble on expression in E. coli” value was “not soluble”.
With “MGHHHHHHSHKKHNQGKEAAQRVLSQIDVAQKKLQDVSMKFRLFQKPANFEQRLQESKMILDEVKMHLPALETKSVEQEVVQSQLNHCVNLYKSLSEVKSEVEMVIKTGRQIVQKKQTENPKELDERVTALKLHYNELGAKVTERKQQLEKCLKLSRKMRKEMNVLTEWLAATDMELTKRSAVEGMPSNLDSEVAWGKATQKEIEKQKVHLKSITEVGEALKTVLGKKETLVEDKLSLLNSNWIAVTSRAEEWLNLLLEYQKHMETFDQNVDHITKWIIQADTLLDESEKKK” the “soluble on expression in E. coli” value was “soluble”.
For “GSPEFMDDIFTQCREGNAVAVRLWLDNTENDLNQGDDHGFSPLHWACREGRSAVVEMLIMRGARINVMNRGDDTPLHLAASHGHRDIVQKLLQYKADINAVNEHGNVPLHYACFWGQDQVAEDLVANGALVSICNKYGEMPVDKAKAPLRELLRERAEKMGQNLNRIPYKDTFWKGTTR”, the “soluble on expression in E. coli” value was “soluble”.
With “MTILAIDTSNYTLGIALLREDTVIAEYITYLKKNHSVRAMPAVHSLLNDCDMAPQDLSKIVVAKGPGSYTGVRIGVTLAKTLAWSLDIPISAVSSLETLAANGRHFDGLISPIFDARRGQVYTGLYQYKNGLLEQVVPDQNVMLADWLEMLKEKDRPVLFLGHDTSLHKQMIEDVLGTKGFIGTAAQHNPRPSELAFLGKEKEAADVHGLVPDYLRLAEAEAKWIESQKLEHHHHHH” the “soluble on expression in E. coli” value was “not soluble”.
In the case of “GSAAPPAKEIPEVLVDPRSRRRYVRGRFLGKGGFAKCFEISDADTKEVFAGKIVPKSLLLKPHQREKMSMEISIHRSLAHQHVVGFHGFFEDNDFVFVVLELCRRRSLLELHKRRKALTEPEARYYLRQIVLGCQYLHRNRVIHRDLKLGNLFLNEDLEVKIGDFGLATKVEYDGERKKTLCGTPNYIAPEVLSKKGHSFEVDVWSIGCIMYTLLVGKPPFETSCLKETYLRIKKNEYSIPKHINPVAASLIQKMLQTDPTARPTINELLNDEFFTSGYIPARLPITCLTIPPRFSIAPSSLDPSNRKPLTVLNK”, the “soluble on expression in E. coli” value is reported as “soluble”.
With “MSVEEAALALWAKSGNPFHPLLAHMLDTAAVALAVLRMEPPRTRALYAEDWGLPEEGALAWAAALVGLHDLGKASPVFQAGWEEGKERVQRAGLPFGELLDWVAHGVFTELFLRRLLKEKGLPERAANDLAAALGAHHGFPANAEEKSRARRHLRTEDPLWKEARRWLLEEVFRRLGAPLPPSQGNGEARPEAVLRVMALASFADWVASDPSLFPYGRDPRRGDYLKEALRLAQEALNRLGWPAFAKAQRREFGELFPYIPKPNALQESVPALLEGACTPVLLLVEAPMGMGKTEAALYAHHLLQAGLGHRGLYVALPTQATANGLFPRVRGFLERLGEGSRLELQLQHGTALLNPHYAGLLERAAPRQVGEEEEGGAVASAWFSARKRAMLAPYGVGTLDQALLGVLRVKHHFVRLWGLMNRVVVLDEVHAYDVYTSGLLQALLRWLRALGSSAVVMTATLPPSRRRALLEAWAGEEVEGQDLGPYPRVVLVGEGVKARSLPPAREVEVALEVLREVDVEPLAQRLKGALPGAVGAIVNTVDRAQDLYRALGEGTPLTLEELARRLGGISGGQAWEEVRQALPERGGEVVGKVLTDGTLVFLLHARFPAEERALRGSVVLALFGKGGPRPPRAILVATQVAEQSLDLDFDLLYTDLAPIDLLFQRSGRLHRHERPRPEEHARPRLLLGVPEDLDFGKPLYWDKVYEDYVLLATWRALSGRDRLRVPGDLEALLEEIYEGENPESFPEGLRERAKKSLKALQERRDREANTARRLSLSELDRLLAYWDEGALVAQERLEDDEEKAETQRLLTRLGDPSVAVVPLFRVGEGLFLDREGRRRAPLKGEVSREEAEALFRRAVRLSRFPLPQELLKEEPPPAWRKSGLLRGLRPLEVGRVFRSGERAFQVELDPELGVVYLPV” the “soluble on expression in E. coli” value was “soluble”.
For “MSLKQINIQKFITAKRIAKYSSLESYKLNILESQKYYSSLSILEVSLRNAIDFYFTERYGESWTDLLDIFKYKEISKIEEAKNFLKLKQEECTKDKIVAELNFGFCTSLFSKTYEEQMRKNNLIKIFNNLPKNKQINRAYLSRKLNNIRNFRNRIFHYEKIINKPEYLNIENDINEILEFLDKEILGFSIGLNIEGHHHHHH”, the “soluble on expression in E. coli” value was “soluble”.
With “MSLKYKAIAAGLLAAHLLAHPISSLAETKKFPDVSDSAWSKDAIYYLVERNVINGMPDGNFMPYGNLTRAQAAKIIATAIGAKVDPNAKPSYNDAKNSWAASFIAAMEKENIIKGREPGVFDPEGKVTRAEMAAMLVRAYNLKSKVTGPVPTKFADLENHWGKEEVNILVELKLSLGTENGWKPNDSITREQAAQLTAQTDKFSKNSDRPVEEGHHHHHH” the “soluble on expression in E. coli” value was “soluble”.
In the case of “MGSDKIHHHHHHCVRVPTLMIVPEAAQSGVAETVFVASNRVFANGQFQSARQDDVTYTRFTVQIPQDRDAGAVRPGRARRTGPNLRTDFVASDGVHLGGEGRFQSELLAEARRRGTSEVMVFIHGFASSIGTGIYRTAQIRYDFEVPGVAVHYAWPSSGSYIGYAYDRDSALFARDGLEELITGIMQTDLDVVLVAHSLGSSVVMEVLRQLRIAGRNALIDRIHGVILFSPDLDVDVFRSQASRIGDLPQPFVIFTSQRDQALTFSSIMAGRTARVGNLATADQVAEFDVTLIDVSAFEGGVRDRLNHFAGATSQSAVQILRDAAQINSAFEDGPDARPGLLPGTILTIQNATLVLLDPEHAR”, the “soluble on expression in E. coli” value is reported as “not soluble”.
For “MRQIQSIRLIDVLELAFGVGYKEETTSQFSSDQPSQVVLYRGEANTVRFAYTNQMSLMKDIRIALDGSDKSLTAQIVPGMGHVYEGFQTSARGIFTMSGVPESTVPVANPNVQTKYIRYFKVIDDMHNTMYKGTVFLVQPQAWKYTMKSVDQLPVDDLNHIGVAGIERMTTLIKNAGALLTTGGSGAFPDNIKVSINPKGRQATITYGDGSTDIIPPAVLWKKGSVKEPTEADQSVGTPTPGIPGKFKRDQSLNEHEAMVNVEPLSHVVKDNIKVIDEKSTGRFEPFRPNEDEKEKPASDVKVRPAEVGSWLEPATALPSVEMSAEDRLKS”, the “soluble on expression in E. coli” value was “not soluble”.
With “MSLKKALFLILDQYADWEGVYLASALNQREDWSVHTVSLDPIVSSIGGFKTSVDYIIGLEPANFNLLVMIGGDSWSNDNKKLLHFVKTAFQKNIPIAAICGAVDFLAKNGLLNNHSHTGNFVYLWKDYKQYKPISSFVEKQAVRDKNLVTANGTAPIEFTNLILEMIDFDTPENIEKMMYMNRYGFYHFCDKYGNPFVEGHHHHHH” the “soluble on expression in E. coli” value was “soluble”.
With “MGRKSQRKNATMFDSDDDTSSVSSSSTMPSERLLNPGMDEVTVLKDALLDQSLDALYEKREQALATIVDAFNSDLQYEFVEKKFATLLHQCLHCTKKGSTKETSLATHVIGLLALTVGLGDHAQEVLEESVTPLSQALKSGREILKITSILECLAVITFVGGNDPEQTEKSMQIIWQMIHPKLGSNVVATKPSPAVISAVVSSWAFLLTTVDRWTLGPKIFQETVTYLSTLLEKDDRSVRIAAGEALAVIYELGTLEKFAAEVKGSANGSVKEGGVSQEALMHMHGLKAKVTKQVRELSVEAGGKGSAKKDLNTQRNLFKDLVEFLEDGYAPETSTKVGGDYLQTSTWYQMIQLNYLKHFLGGGFIKHMQENEFLHDVFSFTPKKIGGGKLSNDEKRLFKSPNSALNKARTQFLAKQRMLAKNMNVGHYAATAMEEE” the “soluble on expression in E. coli” value was “soluble”.
